Measured values as given in US11981719 (ALTEOGEN, dated 2024).
Positions count from the first letter of the chain named.

Assays:
[1] = target: T1, hGH receptor on hGHR/Luc/HEK293F cells (human, UniProt P10912 19-638); experiment: cell-based or functional assay
T1 sequence (looked up): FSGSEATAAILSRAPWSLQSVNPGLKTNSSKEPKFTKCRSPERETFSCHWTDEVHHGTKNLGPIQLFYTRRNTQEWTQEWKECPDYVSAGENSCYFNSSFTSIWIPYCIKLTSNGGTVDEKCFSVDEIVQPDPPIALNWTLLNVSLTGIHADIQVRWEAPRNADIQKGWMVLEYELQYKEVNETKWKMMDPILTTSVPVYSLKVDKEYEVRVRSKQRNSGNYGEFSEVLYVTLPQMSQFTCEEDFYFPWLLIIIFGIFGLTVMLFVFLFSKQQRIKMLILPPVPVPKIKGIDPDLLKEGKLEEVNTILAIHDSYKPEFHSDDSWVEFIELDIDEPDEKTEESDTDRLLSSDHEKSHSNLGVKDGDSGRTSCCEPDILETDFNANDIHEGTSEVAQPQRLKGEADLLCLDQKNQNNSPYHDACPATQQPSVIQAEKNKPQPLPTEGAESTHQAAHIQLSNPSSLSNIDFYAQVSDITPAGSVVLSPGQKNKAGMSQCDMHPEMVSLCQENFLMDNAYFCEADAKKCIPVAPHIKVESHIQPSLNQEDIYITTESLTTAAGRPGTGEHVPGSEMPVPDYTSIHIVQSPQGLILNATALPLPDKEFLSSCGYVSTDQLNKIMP

[2] = target: T2, recombinant hGH receptor Fc chimera (human, UniProt P10912 19-264); experiment: ELISA on plate-coated recombinant hGH receptor Fc chimera, detected with biotinylated anti-hGH polyclonal antibody
T2 construct: also called hGH receptor chimera; not shown: Fc part of the chimera
T2 sequence (looked up): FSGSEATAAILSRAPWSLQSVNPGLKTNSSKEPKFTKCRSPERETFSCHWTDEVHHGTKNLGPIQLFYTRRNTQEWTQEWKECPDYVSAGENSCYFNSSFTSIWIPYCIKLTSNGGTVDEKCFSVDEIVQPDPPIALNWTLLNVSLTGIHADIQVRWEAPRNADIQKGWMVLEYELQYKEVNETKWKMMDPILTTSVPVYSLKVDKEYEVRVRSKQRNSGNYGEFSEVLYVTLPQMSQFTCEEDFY
Method: After additional washing step, 3,3',5,5'-tetramethylbenzidine (TMB) was added to each well to allow TMB reaction. Absorbance signals from the reaction were recorded at 450 nm to 650 nm.

Pegvisomant (ligand) was tested, and the Relative inhibitory potency (relative to Pegvisomant) [1] was 1 and the Relative binding potency (relative to Pegvisomant) [2] was 1.

B1: hGH-A3 (ligand)
chain: FPTIPLSRLFDNAMLRAHRLNQLAFDTYQEFEEAYIPKEQKYSFLQNPQTSLCFSESIPTPSNREETQQKSNLELLRISLLLIQSWLEPVQFLRSVFANSLVYGASDSNVYDLLKDLEEKIQTLMGRLEDGSPRTGQIFKQTYSKFDTNSHNDDALLKNYGLLYCFRKDMDKVSTFLRIVQCRSVEGSCGFEDPQGDAANKTDTSHHDQDHPTFNKITPNLAEFAFSLYRQLAHQSNSTNIFFSPVSIATAFAMLSLGTKADTHDEILEGLNFNLTEIPEAQIHEGFQELLHTLNQPDSQLQLTTGNGLFLSEGLKLVDKFLEDVKKLYHSEAFTVNFGDTEEAKKQINDYVEKGTQGKIVDLVKELDRDTVFALVNYIFFKGKWERPFEVKDTEEEDFHVDQVTTVKVPMMKRLGMFNIQHCKKLSSWVLLMKYLGNATAIFFLPDEGKLQHLENELTHDIITKFLENEDRRSASLHLPKLSITGTYDLKSVLGQLGITKVFSNGADLSGVTEEAPLKLSKAVHKAVLTIDEKGTEAAGAMFLEAINMSIPPEVKFNKPFVFLMIDQNTKSPLFMGKVVNPTQK
notes: also called hGHRA-NexP
In the case of B1, the Relative inhibitory potency [1] is reported as 0.957 relative to Pegvisomant and the Relative binding potency [2] is reported as 0.925 relative to Pegvisomant.

B2: hGH-A9 (ligand)
chain: B1 chain with H18D, Q46K, I179T
notes: also called hGHRA-NexP
B2 was tested, and the Relative inhibitory potency [1] was 1.89 relative to Pegvisomant and the Relative binding potency [2] was 4.58 relative to Pegvisomant.

B3: hGH-A8 (ligand)
chain: B1 chain with H18D, R167N, K168A, D171S, K172R, I179T
notes: also called hGHRA-NexP
For B3, the Relative inhibitory potency [1] was 1.42 relative to Pegvisomant and the Relative binding potency [2] was 4.64 relative to Pegvisomant.

B4: hGH-A4 (ligand)
chain: B1 chain with H18D, I179T
notes: also called hGHRA-NexP
B4 was tested, and the Relative inhibitory potency [1] was 1.22 relative to Pegvisomant and the Relative binding potency [2] was 2.31 relative to Pegvisomant.

B5: hGH-A7 (ligand)
chain: B1 chain with F54P, R64K, R167N, D171S, F176Y
notes: also called hGHRA-NexP
B5 was tested, and the Relative inhibitory potency [1] was 1.84 relative to Pegvisomant and the Relative binding potency [2] was 4.73 relative to Pegvisomant.

B6: hGH-A6 (ligand)
chain: B1 chain with F54P, R64K, F176Y
notes: also called hGHRA-NexP
For B6, the Relative inhibitory potency [1] was 1.42 relative to Pegvisomant and the Relative binding potency [2] was 3.37 relative to Pegvisomant.

B7: hGH-A10 (ligand)
chain: EDPQGDAANKTDTSHHDQDHPTFNKITPNLAEFAFSLYRQLAHQSNSTNIFFSPVSIATAFAMLSLGTKADTHDEILEGLNFNLTEIPEAQIHEGFQELLHTLNQPDSQLQLTTGNGLFLSEGLKLVDKFLEDVKKLYHSEAFTVNFGDTEEAKKQINDYVEKGTQGKIVDLVKELDRDTVFALVNYIFFKGKWERPFEVKDTEEEDFHVDQVTTVKVPMMKRLGMFNIQHCKKLSSWVLLMKYLGNATAIFFLPDEGKLQHLENELTHDIITKFLENEDRRSASLHLPKLSITGTYDLKSVLGQLGITKVFSNGADLSGVTEEAPLKLSKAVHKAVLTIDEKGTEAAGAMFLEAINMSIPPEVKFNKPFVFLMIDQNTKSPLFMGKVVNPTQKFPTIPLSRLFDNAMLRAHRLNQLAFDTYQEFEEAYIPKEQKYSFLQNPQTSLCPSESIPTPSNKEETQQKSNLELLRISLLLIQSWLEPVQFLRSVFANSLVYGASDSNVYDLLKDLEEKIQTLMGRLEDGSPRTGQIFKQTYSKFDTNSHNDDALLKNYGLLYCFNKDMSKVSTYLRIVQCRSVEGSCGF
notes: also called hGHRA-NexP
B7 was tested, and the Relative inhibitory potency [1] was 17.7 relative to Pegvisomant and the Relative binding potency [2] was 6.08 relative to Pegvisomant.

B8: hGH-A11 (ligand)
chain: B7 chain with H412D, Q440K, P448F, K458R, N561R, S565D, Y570F, I573T
notes: also called hGHRA-NexP
B8 was tested, and the Relative inhibitory potency [1] was 17.3 relative to Pegvisomant and the Relative binding potency [2] was 9.95 relative to Pegvisomant.
